Laboratory results: patent US20100221748A1

Molecular target: T1, RB-C fusion protein (residues 701-928) (UniProt P06400)
T1 sequence: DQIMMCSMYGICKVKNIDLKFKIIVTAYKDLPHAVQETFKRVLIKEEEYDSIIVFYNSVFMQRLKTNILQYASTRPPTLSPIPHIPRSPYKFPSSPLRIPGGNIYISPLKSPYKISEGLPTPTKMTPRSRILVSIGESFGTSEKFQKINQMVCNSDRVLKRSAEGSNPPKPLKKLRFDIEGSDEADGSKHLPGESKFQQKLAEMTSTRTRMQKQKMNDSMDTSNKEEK

Substance: AMPK holoenzyme (α/β/γ heterotrimers)
- nonradioactive in vitro kinase assay; phosphorylation monitored by immunoblot using phospho-Rb800/804 antibody: AMPK directly phosphorylated Rb at Ser804 and that this modification could be inhibited by the AMPK inhibitor, compound C
